{"source": "patent US20230416351A1", "biological_target": "recombinant VEGF165 protein (human) (UniProt P15692)", "sequence (P15692 other isoform, or with tags, fused parts or gaps)": "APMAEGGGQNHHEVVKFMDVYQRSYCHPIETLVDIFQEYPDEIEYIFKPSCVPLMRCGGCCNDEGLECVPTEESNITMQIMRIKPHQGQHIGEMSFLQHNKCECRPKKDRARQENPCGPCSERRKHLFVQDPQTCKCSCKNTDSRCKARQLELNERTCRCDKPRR", "experiment": "SPR in vitro binding, drug and recombinant VEGF165, 37 C"}
{"substance": "aflibercept (Fc fusion)", "values": [{"measurement": "Kd", "value": 0.457, "unit": "nM"}]}
